In patent publication US10562936B2, “Ligands for integrin αvβ6, synthesis and uses thereof” (Technische Universitat Munchen, priority 2015, dated 2020):
Like-named read-outs stand apart in the source and are kept apart here. Square brackets hold non-standard residues; d marks the D form. Peptide text beside a SMILES is read from it. NMeK = CN[C@@H](CCCCN)C(=O)O; dNMeK = CN[C@H](CCCCN)C(=O)O; Sar = CNCC(=O)O

B1: Compound 16, cyclic peptide A R G D L A L (NMe)k P (peptide)
peptide: cyclo(ARGDLAL[dNMeK]P)
notes: Comparative compound (*)
B2: Compound 2, cyclic peptide A R G D A A A L p P (peptide)
peptide: cyclo(ARGDAAAL[dP]P)
SMILES: CC(C)C[C@@H]1NC(=O)[C@H](C)NC(=O)[C@H](C)NC(=O)[C@H](C)NC(=O)[C@H](CC(=O)O)NC(=O)CNC(=O)[C@H](CCCNC(=N)N)NC(=O)[C@H](C)NC(=O)[C@@H]2CCCN2C(=O)[C@H]2CCCN2C1=O
notes: Comparative compound (*)
B3: Compound 3, cyclic peptide A R G D L A A A p P (peptide)
peptide: cyclo(ARGDLAAA[dP]P)
SMILES: CC(C)C[C@@H]1NC(=O)[C@H](CC(=O)O)NC(=O)CNC(=O)[C@H](CCCNC(=N)N)NC(=O)[C@H](C)NC(=O)[C@@H]2CCCN2C(=O)[C@H]2CCCN2C(=O)[C@H](C)NC(=O)[C@H](C)NC(=O)[C@H](C)NC1=O
notes: Comparative compound (*)
B4: Compound 14, cyclic peptide A R G D L A L Sar P (peptide)
peptide: cyclo(ARGDLAL[Sar]P)
SMILES: CC(C)C[C@@H]1NC(=O)[C@H](CC(=O)O)NC(=O)CNC(=O)[C@H](CCCNC(=N)N)NC(=O)[C@H](C)NC(=O)[C@@H]2CCCN2C(=O)CN(C)C(=O)[C@H](CC(C)C)NC(=O)[C@H](C)NC1=O
notes: Comparative compound (*)
B5: Compound 9, cyclic peptide A R G D F A L p P (peptide)
peptide: cyclo(ARGDFAL[dP]P)
SMILES: CC(C)C[C@@H]1NC(=O)[C@H](C)NC(=O)[C@H](Cc2ccccc2)NC(=O)[C@H](CC(=O)O)NC(=O)CNC(=O)[C@H](CCCNC(=N)N)NC(=O)[C@H](C)NC(=O)[C@@H]2CCCN2C(=O)[C@H]2CCCN2C1=O
notes: Comparative compound (*)
B6: Compound 12, cyclic peptide F R G D L A L p P (peptide)
peptide: cyclo(FRGDLAL[dP]P)
SMILES: CC(C)C[C@@H]1NC(=O)[C@H](CC(=O)O)NC(=O)CNC(=O)[C@H](CCCNC(=N)N)NC(=O)[C@H](Cc2ccccc2)NC(=O)[C@@H]2CCCN2C(=O)[C@H]2CCCN2C(=O)[C@H](CC(C)C)NC(=O)[C@H](C)NC1=O
notes: also called Cpd; 12
B7: Compound 5, cyclic peptide A R G D L L p P (peptide)
peptide: cyclo(ARGDLL[dP]P)
SMILES: CC(C)C[C@@H]1NC(=O)[C@H](CC(=O)O)NC(=O)CNC(=O)[C@H](CCCNC(=N)N)NC(=O)[C@H](C)NC(=O)[C@@H]2CCCN2C(=O)[C@H]2CCCN2C(=O)[C@H](CC(C)C)NC1=O
notes: Comparative compound (*)
B8: Compound 13, cyclic peptide A R G D L A L p Sar (peptide)
peptide: cyclo(ARGDLAL[dP][Sar])
SMILES: CC(C)C[C@@H]1NC(=O)[C@H](CC(=O)O)NC(=O)CNC(=O)[C@H](CCCNC(=N)N)NC(=O)[C@H](C)NC(=O)CN(C)C(=O)[C@H]2CCCN2C(=O)[C@H](CC(C)C)NC(=O)[C@H](C)NC1=O
B9: Compound 22, cyclic peptide W R G D L A F p (NMe)K (peptide)
peptide: cyclo(WRGDLAF[dP][NMeK])
SMILES: CC(C)C[C@@H]1NC(=O)[C@H](CC(=O)O)NC(=O)CNC(=O)[C@H](CCCNC(=N)N)NC(=O)[C@H](Cc2c[nH]c3ccccc23)NC(=O)[C@H](CCCCN)N(C)C(=O)[C@H]2CCCN2C(=O)[C@H](Cc2ccccc2)NC(=O)[C@H](C)NC1=O
B10: Compound 19, cyclic peptide F R G D L A Y p (NMe)K (peptide)
peptide: FRGDLAYXX
modifications: head-to-tail cyclic; D-Pro (p) at position 8; N-methyl-Lys at position 9
B11: Compound 15, cyclic peptide A R G D L A L p (NMe)K (peptide)
peptide: cyclo(ARGDLAL[dP][NMeK])
SMILES: CC(C)C[C@@H]1NC(=O)[C@H](CC(=O)O)NC(=O)CNC(=O)[C@H](CCCNC(=N)N)NC(=O)[C@H](C)NC(=O)[C@H](CCCCN)N(C)C(=O)[C@H]2CCCN2C(=O)[C@H](CC(C)C)NC(=O)[C@H](C)NC1=O
B12: Compound 17, cyclic peptide A R G D L A F p (NMe)K (peptide)
peptide: cyclo(ARGDLAF[dP][NMeK])
SMILES: CC(C)C[C@@H]1NC(=O)[C@H](CC(=O)O)NC(=O)CNC(=O)[C@H](CCCNC(=N)N)NC(=O)[C@H](C)NC(=O)[C@H](CCCCN)N(C)C(=O)[C@H]2CCCN2C(=O)[C@H](Cc2ccccc2)NC(=O)[C@H](C)NC1=O
B13: Compound 21, cyclic peptide Y R G D L A F p (NMe)K (peptide)
peptide: YRGDLAFXX
modifications: head-to-tail cyclic; D-Pro (p) at position 8; N-methyl-Lys at position 9
B14: Compound 20, cyclic peptide F R G D L A W p (NMe)K (peptide)
peptide: cyclo(FRGDLAW[dP][NMeK])
SMILES: CC(C)C[C@@H]1NC(=O)[C@H](CC(=O)O)NC(=O)CNC(=O)[C@H](CCCNC(=N)N)NC(=O)[C@H](Cc2ccccc2)NC(=O)[C@H](CCCCN)N(C)C(=O)[C@H]2CCCN2C(=O)[C@H](Cc2c[nH]c3ccccc23)NC(=O)[C@H](C)NC1=O
B15: Compound 7, cyclic peptide A R G D L d L p P (peptide)
peptide: cyclo(ARGDL[dD]L[dP]P)
SMILES: CC(C)C[C@@H]1NC(=O)[C@H](CC(=O)O)NC(=O)CNC(=O)[C@H](CCCNC(=N)N)NC(=O)[C@H](C)NC(=O)[C@@H]2CCCN2C(=O)[C@H]2CCCN2C(=O)[C@H](CC(C)C)NC(=O)[C@@H](CC(=O)O)NC1=O
notes: Comparative compound (*)
B16: Compound 6, cyclic peptide A R G D L p P (peptide)
peptide: cyclo(ARGDL[dP]P)
SMILES: CC(C)C[C@@H]1NC(=O)[C@H](CC(=O)O)NC(=O)CNC(=O)[C@H](CCCNC(=N)N)NC(=O)[C@H](C)NC(=O)[C@@H]2CCCN2C(=O)[C@H]2CCCN2C1=O
notes: Comparative compound (*)

Columns and labels:
αIIbβ3 = biological target: T1, αIIbβ3 (Homo sapiens, UniProt P05106+P08514); experiment: Solid-phase integrin binding assay, αIIbβ3 (coated Fibrinogen)
T1 construct: using coated extracellular matrix proteins and soluble integrins
Description: (§1) The activity and selectivity of integrin ligands were determined by a solid-phase binding assay according to the previously reported protocols using coated extracellular matrix proteins and soluble integrins: Fibronectin (Fn) for α5β1, latent activating protein (LAP) for αvβ6 and αvβ8, Vitronectin (Vn) for αvβ3 and αvβ5, Fibrinogen (Fbg) for aIIbβ3.

αvβ5 = biological target: T2, αvβ5 (Homo sapiens, UniProt P06756+P18084); experiment: Solid-phase integrin binding assay, αvβ5 (coated Vitronectin)
T2 construct: using coated extracellular matrix proteins and soluble integrins
Description: as §1

αvβ6 = αvβ6 (Homo sapiens, UniProt P06756+P18564); experiment: Solid-phase integrin binding assay, αvβ6 (coated LAP, soluble integrin); set-up: using coated extracellular matrix proteins and soluble integrins
Description: as §1

αvβ3 = biological target: T3, αvβ3 (Homo sapiens, UniProt P05106+P06756); experiment: Solid-phase integrin binding assay, αvβ3 (coated Vitronectin)
T3 construct: using coated extracellular matrix proteins and soluble integrins
Description: as §1

[1] = biological target: T4, integrin αvβ3 (soluble integrin) (UniProt P06756 31-992; P05106 27-718); experiment: solid-phase binding assay, competition; coated vitronectin, soluble αvβ3
T4 construct: Only 'soluble integrins' is said

[2] = biological target: T5, integrin αvβ6 (soluble integrin) (UniProt P06756 31-992; P18564 22-707); experiment: solid-phase binding assay, competition; coated LAP, soluble αvβ6
T5 construct: Only 'soluble integrins' is said

[3] = biological target: T6, integrin αvβ8 (soluble integrin) (UniProt P06756 31-992; P26012 43-684); experiment: solid-phase binding assay, competition; coated LAP, soluble αvβ8
T6 construct: Only 'soluble integrins' is said

[4] = biological target: T7, integrin α5β1 (soluble integrin) (UniProt P08648 42-995; P05556 21-728); experiment: solid-phase binding assay, competition; coated fibronectin, soluble α5β1
T7 construct: Only 'soluble integrins' is said

[5] = solid-phase binding assay, Vitronectin coated, read-out: αvβ3, IC50

T4 sequence (P06756 31-992, chain 1 of 2): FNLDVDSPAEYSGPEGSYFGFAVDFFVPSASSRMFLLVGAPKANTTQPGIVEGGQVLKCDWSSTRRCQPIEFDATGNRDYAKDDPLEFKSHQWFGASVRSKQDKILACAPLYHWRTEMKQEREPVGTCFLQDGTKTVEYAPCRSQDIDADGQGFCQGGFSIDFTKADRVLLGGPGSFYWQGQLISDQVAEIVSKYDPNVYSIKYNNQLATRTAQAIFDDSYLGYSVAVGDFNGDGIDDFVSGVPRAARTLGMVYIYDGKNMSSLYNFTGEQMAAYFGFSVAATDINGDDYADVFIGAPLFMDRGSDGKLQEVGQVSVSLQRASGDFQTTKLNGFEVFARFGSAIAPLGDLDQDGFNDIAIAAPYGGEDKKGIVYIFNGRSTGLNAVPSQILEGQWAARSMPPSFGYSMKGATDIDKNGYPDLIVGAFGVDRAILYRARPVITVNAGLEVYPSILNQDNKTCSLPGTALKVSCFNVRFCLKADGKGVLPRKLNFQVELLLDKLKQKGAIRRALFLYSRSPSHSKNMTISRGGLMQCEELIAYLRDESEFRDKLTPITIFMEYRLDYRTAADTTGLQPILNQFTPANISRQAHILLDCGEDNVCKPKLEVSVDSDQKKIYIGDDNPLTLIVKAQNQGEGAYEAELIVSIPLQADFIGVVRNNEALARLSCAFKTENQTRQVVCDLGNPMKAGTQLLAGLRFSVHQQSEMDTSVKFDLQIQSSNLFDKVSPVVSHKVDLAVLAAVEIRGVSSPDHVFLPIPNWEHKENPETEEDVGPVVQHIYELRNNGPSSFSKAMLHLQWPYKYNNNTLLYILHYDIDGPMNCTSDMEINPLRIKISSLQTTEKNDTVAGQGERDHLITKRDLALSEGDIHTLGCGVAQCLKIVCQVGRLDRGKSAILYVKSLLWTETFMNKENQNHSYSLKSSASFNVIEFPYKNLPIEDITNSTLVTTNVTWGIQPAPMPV
T4 sequence (P05106 27-718, chain 2 of 2): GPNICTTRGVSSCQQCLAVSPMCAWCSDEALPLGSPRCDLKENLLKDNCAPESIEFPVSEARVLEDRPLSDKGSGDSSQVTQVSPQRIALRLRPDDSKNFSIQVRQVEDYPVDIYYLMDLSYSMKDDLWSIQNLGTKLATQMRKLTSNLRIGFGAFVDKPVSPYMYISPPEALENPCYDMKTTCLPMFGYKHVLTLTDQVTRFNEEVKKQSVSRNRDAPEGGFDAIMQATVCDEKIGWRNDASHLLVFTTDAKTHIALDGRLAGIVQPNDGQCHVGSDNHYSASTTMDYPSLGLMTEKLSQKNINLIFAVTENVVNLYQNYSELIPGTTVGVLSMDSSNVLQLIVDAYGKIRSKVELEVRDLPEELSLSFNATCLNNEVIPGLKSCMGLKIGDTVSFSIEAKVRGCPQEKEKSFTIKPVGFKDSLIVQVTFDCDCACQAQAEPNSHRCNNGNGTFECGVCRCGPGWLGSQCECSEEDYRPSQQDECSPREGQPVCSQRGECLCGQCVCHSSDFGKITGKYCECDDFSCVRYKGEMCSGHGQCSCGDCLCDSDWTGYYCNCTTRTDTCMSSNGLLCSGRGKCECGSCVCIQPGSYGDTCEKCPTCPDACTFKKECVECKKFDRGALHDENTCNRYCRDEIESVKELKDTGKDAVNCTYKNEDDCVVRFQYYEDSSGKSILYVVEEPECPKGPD
T3 sequence (P06756 31-992 limits assumed): as the sequence (P06756 31-992, chain 1 of 2) above
T3 sequence (P05106 27-718 limits assumed): as the sequence (P05106 27-718, chain 2 of 2) above
T5 sequence (P06756 31-992, chain 1 of 2): as the sequence (P06756 31-992, chain 1 of 2) above
T5 sequence (P18564 22-707, chain 2 of 2): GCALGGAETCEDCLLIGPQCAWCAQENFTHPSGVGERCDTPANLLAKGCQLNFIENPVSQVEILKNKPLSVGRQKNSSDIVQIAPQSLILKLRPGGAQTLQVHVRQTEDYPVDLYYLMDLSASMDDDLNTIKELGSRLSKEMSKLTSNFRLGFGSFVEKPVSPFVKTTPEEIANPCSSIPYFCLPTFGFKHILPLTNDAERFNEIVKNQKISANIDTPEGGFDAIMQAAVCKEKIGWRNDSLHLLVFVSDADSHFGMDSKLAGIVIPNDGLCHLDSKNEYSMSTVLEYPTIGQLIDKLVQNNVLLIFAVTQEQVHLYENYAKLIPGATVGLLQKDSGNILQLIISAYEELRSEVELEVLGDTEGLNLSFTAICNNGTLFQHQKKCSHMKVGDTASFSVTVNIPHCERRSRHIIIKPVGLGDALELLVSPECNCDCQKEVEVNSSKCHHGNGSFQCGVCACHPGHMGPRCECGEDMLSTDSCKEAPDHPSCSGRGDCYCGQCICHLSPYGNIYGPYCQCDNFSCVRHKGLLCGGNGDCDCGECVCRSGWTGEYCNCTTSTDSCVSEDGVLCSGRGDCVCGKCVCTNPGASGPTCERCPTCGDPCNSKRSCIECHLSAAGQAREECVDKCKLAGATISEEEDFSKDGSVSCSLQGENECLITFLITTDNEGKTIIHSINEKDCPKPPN
T1 sequence (P08514 32-1039): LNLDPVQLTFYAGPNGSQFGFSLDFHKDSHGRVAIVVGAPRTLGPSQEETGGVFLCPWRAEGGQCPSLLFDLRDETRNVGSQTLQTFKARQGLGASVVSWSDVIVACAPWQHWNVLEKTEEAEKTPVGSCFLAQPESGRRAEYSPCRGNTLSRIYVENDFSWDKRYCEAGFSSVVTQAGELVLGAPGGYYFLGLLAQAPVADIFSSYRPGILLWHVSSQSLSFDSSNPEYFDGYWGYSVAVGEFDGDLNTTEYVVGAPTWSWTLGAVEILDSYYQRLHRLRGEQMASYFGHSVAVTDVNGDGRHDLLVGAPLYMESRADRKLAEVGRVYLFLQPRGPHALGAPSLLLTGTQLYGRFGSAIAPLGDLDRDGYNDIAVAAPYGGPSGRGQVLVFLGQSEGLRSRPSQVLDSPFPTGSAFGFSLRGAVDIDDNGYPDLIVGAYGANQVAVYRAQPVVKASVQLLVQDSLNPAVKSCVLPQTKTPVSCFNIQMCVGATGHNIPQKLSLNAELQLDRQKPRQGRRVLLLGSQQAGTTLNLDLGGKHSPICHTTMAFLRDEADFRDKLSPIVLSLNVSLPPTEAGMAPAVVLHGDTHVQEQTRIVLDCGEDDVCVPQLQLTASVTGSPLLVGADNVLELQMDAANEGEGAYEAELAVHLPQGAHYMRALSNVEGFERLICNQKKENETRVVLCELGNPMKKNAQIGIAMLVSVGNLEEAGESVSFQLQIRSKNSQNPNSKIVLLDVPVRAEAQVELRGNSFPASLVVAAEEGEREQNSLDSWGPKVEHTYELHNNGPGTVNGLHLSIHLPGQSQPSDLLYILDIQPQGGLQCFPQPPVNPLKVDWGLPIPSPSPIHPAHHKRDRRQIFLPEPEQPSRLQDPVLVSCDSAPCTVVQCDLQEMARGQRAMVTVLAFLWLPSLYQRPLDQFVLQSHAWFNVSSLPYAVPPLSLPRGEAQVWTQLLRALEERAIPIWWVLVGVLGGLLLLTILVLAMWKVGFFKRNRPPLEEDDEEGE
T1 sequence (P05106 27-788): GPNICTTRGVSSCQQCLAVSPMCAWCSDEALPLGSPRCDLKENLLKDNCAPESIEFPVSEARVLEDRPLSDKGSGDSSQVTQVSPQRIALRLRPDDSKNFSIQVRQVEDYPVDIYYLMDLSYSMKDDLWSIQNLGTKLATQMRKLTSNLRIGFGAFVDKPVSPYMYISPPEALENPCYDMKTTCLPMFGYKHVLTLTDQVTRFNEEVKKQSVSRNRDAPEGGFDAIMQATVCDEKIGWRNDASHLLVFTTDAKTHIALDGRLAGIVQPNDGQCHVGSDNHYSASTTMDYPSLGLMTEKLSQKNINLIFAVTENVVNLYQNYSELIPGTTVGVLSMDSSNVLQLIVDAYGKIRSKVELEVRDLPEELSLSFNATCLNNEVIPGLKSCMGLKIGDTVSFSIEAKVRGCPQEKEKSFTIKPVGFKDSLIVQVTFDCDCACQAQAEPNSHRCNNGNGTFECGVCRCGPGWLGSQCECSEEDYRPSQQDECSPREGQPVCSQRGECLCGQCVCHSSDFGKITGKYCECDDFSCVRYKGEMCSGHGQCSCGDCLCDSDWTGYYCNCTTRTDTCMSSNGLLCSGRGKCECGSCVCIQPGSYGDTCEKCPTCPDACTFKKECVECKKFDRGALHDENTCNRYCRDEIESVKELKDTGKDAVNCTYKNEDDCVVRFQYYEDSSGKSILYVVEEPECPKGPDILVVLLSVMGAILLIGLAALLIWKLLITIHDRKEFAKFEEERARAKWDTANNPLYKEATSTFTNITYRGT
T6 sequence (P06756 31-992, chain 1 of 2): as the sequence (P06756 31-992, chain 1 of 2) above
T6 sequence (P26012 43-684, chain 2 of 2): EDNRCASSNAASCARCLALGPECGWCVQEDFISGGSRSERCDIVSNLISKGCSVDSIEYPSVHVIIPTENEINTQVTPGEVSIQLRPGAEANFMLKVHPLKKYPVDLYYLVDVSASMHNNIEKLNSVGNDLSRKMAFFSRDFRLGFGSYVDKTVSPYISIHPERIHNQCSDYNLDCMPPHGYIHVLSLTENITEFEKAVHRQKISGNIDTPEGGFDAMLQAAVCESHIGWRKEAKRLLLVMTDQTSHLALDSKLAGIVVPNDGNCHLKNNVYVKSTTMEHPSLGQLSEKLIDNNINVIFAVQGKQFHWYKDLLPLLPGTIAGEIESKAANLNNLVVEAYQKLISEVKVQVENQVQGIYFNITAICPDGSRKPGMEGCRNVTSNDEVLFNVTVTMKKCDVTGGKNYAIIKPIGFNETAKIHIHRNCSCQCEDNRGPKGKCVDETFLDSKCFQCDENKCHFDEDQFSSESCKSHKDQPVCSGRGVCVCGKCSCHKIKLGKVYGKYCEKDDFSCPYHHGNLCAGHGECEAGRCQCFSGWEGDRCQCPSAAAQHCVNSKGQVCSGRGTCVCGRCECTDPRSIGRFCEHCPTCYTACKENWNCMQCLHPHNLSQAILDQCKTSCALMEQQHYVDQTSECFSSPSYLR

Molecule | IC50 [1] | IC50 [2] | further results
CC(C)C[C@@H]1NC(=O)[C@H](CC(=O)O)NC(=O)CNC(=O)[C@H](CCCNC(=N)N)NC(=O)[C@H](Cc2ccccc2)NC(=O)[C@@H]2CCCN2C(=O)[C@H]2CCCN2C(=O)[C@H](CC(C)C)NC(=O)[C@H](C)NC1=O [Compound 12, F R G D L A L p P] (cyclo(FRGDLAL[dP]P)) | – | – | IC50 (αIIbβ3; solid-phase binding assay, Fibrinogen coated, read-out: αIIbβ3, IC50): > 1000 nM; IC50 (αvβ5; solid-phase binding assay, Vitronectin coated, read-out: αvβ5, IC50): > 1000 nM; IC50 (αvβ6): 1.25 nM; IC50 (αvβ3; [5]): > 1000 nM
CC(C)C[C@@H]1NC(=O)[C@H](CC(=O)O)NC(=O)CNC(=O)[C@H](CCCNC(=N)N)NC(=O)[C@H](C)NC(=O)[C@@H]2CCCN2C(=O)[C@H]2CCCN2C(=O)[C@H](CC(C)C)NC(=O)[C@H](C)NC(=O)[C@H](C)NC1=O [Compound 1, A R G D L A A L p P] (cyclo(RGDLAAL[dP]PA)) | – | – | IC50 (αIIbβ3): > 1000 nM; IC50 (αvβ5): > 1000 nM; IC50 (αvβ6): 8.3 nM; IC50 (αvβ3): 76.7 nM
CC(C)C[C@@H]1NC(=O)[C@H](CC(=O)O)NC(=O)CNC(=O)[C@H](CCCNC(=N)N)NC(=O)[C@H](C)NC(=O)[C@@H]2CCCN2C(=O)[C@H]2CCCN2C(=O)[C@H](CC(C)C)NC(=O)[C@@H](CC(=O)O)NC1=O [Compound 7, A R G D L d L p P] (cyclo(ARGDL[dD]L[dP]P)) | – | – | IC50 (αvβ3; [5]): > 1000 nM
CC(C)C[C@@H]1NC(=O)[C@H](CC(=O)O)NC(=O)CNC(=O)[C@H](CCCNC(=N)N)NC(=O)[C@H](C)NC(=O)[C@@H]2CCCN2C(=O)[C@H]2CCCN2C(=O)[C@H](Cc2ccccc2)NC(=O)[C@H](C)NC1=O [Compound 10, A R G D L A F p P] (cyclo(ARGDLAF[dP]P)) | – | – | IC50 (αvβ6): 0.67 nM; IC50 (αvβ3; [5]): 104 nM
B1 | 50.4 nM | 11.4 nM | –
B2 | – | 320 nM | –
B3 | – | 15.4 nM | –
B4 | 85.1 nM | 24.2 nM | –
B5 | 65.2 nM | 63.4 nM | –
B6 | – | – | IC50 [3]: 127 nM; IC50 [4]: 254 nM
B7 | – | 292 nM | –
B8 | 87.7 nM | 8.1 nM | –
B9 | 645 nM | – | –
B10 | 685 nM | 0.39 nM | –
B11 | 415 nM | 4.3 nM | –
B12 | 143 nM | 0.7 nM | –
B13 | 432 nM | 0.4 nM | –
B14 | 204 nM | 0.12 nM | –
B15 | – | 148 nM | –
B16 | – | 417 nM | –
